± gives the standard deviation of the averaged measurements.
Tested on: Saccharomyces cerevisiae
Assay: protein stability index of tFT-peptide fusion (C-terminal peptide) (PSI (0-1 scale)); higher = more stable (slower turnover)
Details: genetic background: das1 deletion; temperature: 30 C
Procedure: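 MPS profiling in S. cerevisiae of the yeast C-terminome library: the last 12 aa of each annotated ORF are fused to the C-terminus of a sfGFP-mCherry timer, after a GGGS linker. Cells are FACS-sorted into 8 mCherry/sfGFP bins and deep-sequenced. PSI runs from 0 (unstable) to 1 (stable); wild type and das1Δ backgrounds, two technical replicates each.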

Sequence	protein stability index
IFYLRFPSYIRG [YJR151W-A C-terminal 12 aa]	0.614 ± 0.017
IGRENENENEDD [POP5 C-terminal 12 aa]	0.688 ± 0.037
IHTPTIPKRSLT [MCX1 C-terminal 12 aa]	0.7149 ± 0.0019
IIGALNLYDGLI [FRQ1 C-terminal 12 aa]	0.737 ± 0.017
IIGIYYVLKWLR [BOS1 C-terminal 12 aa]	0.3507 ± 0.0021
IKLARRLRGERS [YBR010W; YNL031C C-terminal 12 aa]	0.6941 ± 0.0047
IKLIDFNETSLT [MCM22 C-terminal 12 aa]	0.68 ± 0.008
IKRLDANTDFNI [MFB1 C-terminal 12 aa]	0.678 ± 0.019
ILDDTRQALGNT [PCL8 C-terminal 12 aa]	0.703 ± 0.034
ILKELSNLETLY [RPB4 C-terminal 12 aa]	0.7182 ± 0.007
ILNCVGSAKTSG [YBR298C-A C-terminal 12 aa]	0.68417 ± 0.00062
ILRNASQIVSSV [VPS1 C-terminal 12 aa]	0.7029 ± 0.0038
ILRPLELKYFGR [FCY2 C-terminal 12 aa]	0.707 ± 0.029
ILSLYFISDRTG [YBR200W-A C-terminal 12 aa]	0.7249 ± 0.0034
ILWKNGIYIAHI [HUR1 C-terminal 12 aa]	0.659 ± 0.01
ININDLMVNRNH [YOR389W C-terminal 12 aa]	0.7014 ± 0.0018
INKKKSGSGCIC [YPT10 C-terminal 12 aa]	0.696 ± 0.035
INKRAVSNSKDV [RFT1 C-terminal 12 aa]	0.692 ± 0.026
IPTKKSQMDYFL [PPH3 C-terminal 12 aa]	0.709 ± 0.029
IRLDGENNSCSC [YPT7 C-terminal 12 aa]	0.692 ± 0.017
ISRKAGHPAPAF [YML100W-A C-terminal 12 aa]	0.717 ± 0.0091

Sequence	protein stability index
ITLRLWEQRQAK [MAD1 C-terminal 12 aa]	0.754 ± 0.019
IYALSIKHPKEI [CPT1 C-terminal 12 aa]	0.713 ± 0.0085
IYANRDKAKKNM [OPI3 C-terminal 12 aa]	0.681 ± 0.021
IYIYTSTLQLCV [YHR028W-A C-terminal 12 aa]	0.376 ± 0.024
IYSVIQCLFLHS [YMR141W-A C-terminal 12 aa]	0.64018 ± 0.00059
KAALDRVENALA [IML2 C-terminal 12 aa]	0.699 ± 0.02
KAIEYFEEYQSW [FRE3 C-terminal 12 aa]	0.721 ± 0.021
KDGFVLYSYGQK [SKP2 C-terminal 12 aa]	0.69 ± 0.021
KDKKDKKKKHRD [RPA34 C-terminal 12 aa]	0.704 ± 0.013
KDLFASIGKKKL [FYV8 C-terminal 12 aa]	0.714 ± 0.011
KDWLIKTRKTSL [TVS1 C-terminal 12 aa]	0.707 ± 0.013
KEDKKKKSSNCC [YPT32 C-terminal 12 aa]	0.704 ± 0.0073
KEGRRSRTRTSS [YJR098C C-terminal 12 aa]	0.7049 ± 0.0033
KENLANNEILDN [YKL063C C-terminal 12 aa]	0.683 ± 0.018
KERIVLSNVRPM [TFC7 C-terminal 12 aa]	0.6909 ± 0.004
KESIQQQEDDLL [SEC17 C-terminal 12 aa]	0.6974 ± 0.0026
KETDKVNDENSI [MLP1 C-terminal 12 aa]	0.708 ± 0.0044
KETTTRNYRGTC [GAD1 C-terminal 12 aa]	0.71 ± 0.029
KFAKANIGYVMG [RPN4 C-terminal 12 aa]	0.4528 ± 0.0025
KFDIVDQLLSTL [RSM24 C-terminal 12 aa]	0.7136 ± 0.0037
KFEKKLYNFLGF [GEP4 C-terminal 12 aa]	0.701 ± 0.028

Sequence	protein stability index
KGMKRLDYRFIH [SOA1 C-terminal 12 aa]	0.688 ± 0.029
KGNLPGVKKGIW [MRP2 C-terminal 12 aa]	0.687 ± 0.012
KGRYVNSSKRRS [NOB1 C-terminal 12 aa]	0.6955 ± 0.00021
KGTKRDQNDNHN [AQR1 C-terminal 12 aa]	0.698 ± 0.01
KHAFMGTLKKDL [RPL3 C-terminal 12 aa]	0.7 ± 0.01
KIEHVDDETRTH [PEX13 C-terminal 12 aa]	0.6991 ± 0.0032
KILGRYVVDTSK [ADH3 C-terminal 12 aa]	0.7177 ± 0.0055
KKKRGFLGLFGR [SRP68 C-terminal 12 aa]	0.706 ± 0.021
KKLEGTIEYQKL [RPT4 C-terminal 12 aa]	0.708 ± 0.027
KKLNFKLCQAFM [NUP85 C-terminal 12 aa]	0.673 ± 0.012
KKNGKISEKPKK [PDR15 C-terminal 12 aa]	0.727 ± 0.02
KKNKSAIDGIFG [RMP1 C-terminal 12 aa]	0.7173 ± 0.0015
KKPSSYVMVPRP [MRPL8 C-terminal 12 aa]	0.708 ± 0.011
KKQESDNDANSK [CMC2 C-terminal 12 aa]	0.703 ± 0.014
KKSKNRNTSLRP [SIP5 C-terminal 12 aa]	0.726 ± 0.02
KLDEAEMQGLIM [YMR158C-A C-terminal 12 aa]	0.69 ± 0.012
KLKRTITLPQLD [CIK1 C-terminal 12 aa]	0.691 ± 0.022
KLSAPIFSILHS [APT2 C-terminal 12 aa]	0.721 ± 0.0083
KLTIRIKQKTHL [YOR316C-A C-terminal 12 aa]	0.702 ± 0.012
KMGQSFNAAGKF [TIM10 C-terminal 12 aa]	0.692 ± 0.033
KNFKTDLSSSSL [SMK1 C-terminal 12 aa]	0.7 ± 0.0086

Sequence	protein stability index
KNFYNRHTSPQL [YHL008C C-terminal 12 aa]	0.737 ± 0.03
KNKKNKKKGKKK [CHS5 C-terminal 12 aa]	0.694 ± 0.048
KNLWEKFWAAVA [LYP1 C-terminal 12 aa]	0.693 ± 0.0092
KNLWHHKINNLN [RAM2 C-terminal 12 aa]	0.699 ± 0.017
KNRFSNGRWGRR [SLD2 C-terminal 12 aa]	0.701 ± 0.036
KNRRRNTKKIAF [RLP24 C-terminal 12 aa]	0.705 ± 0.03
KPEEEKETLQEE [PAF1 C-terminal 12 aa]	0.69 ± 0.046
KPSSNNSINIKV [AHK1 C-terminal 12 aa]	0.707 ± 0.033
KQIVFEIPSETH [RPS7A C-terminal 12 aa]	0.701 ± 0.013
KQREKYAAVASK [SOP4 C-terminal 12 aa]	0.692 ± 0.022
KQSQRQVPHSIK [SPO21 C-terminal 12 aa]	0.7194 ± 0.0004
KQSVQQQKTGNY [YHL009W-A C-terminal 12 aa]	0.699 ± 0.018
KRLGKKTVVTSR [DCC1 C-terminal 12 aa]	0.701 ± 0.011
KRRNWRRTKMNI [RPL39 C-terminal 12 aa]	0.682 ± 0.017
KSAKTAKASQEL [HTA2 C-terminal 12 aa]	0.705 ± 0.017
KSARSWVRSGRL [YPR053C C-terminal 12 aa]	0.80266 ± 0.00042
KSCDEDGQEDEA [TPA1 C-terminal 12 aa]	0.693 ± 0.014
KSDLISNIRQKI [RBH1 C-terminal 12 aa]	0.716 ± 0.035
KSLRSSFGKKLI [PHS1 C-terminal 12 aa]	0.706 ± 0.052

— the supplement of paper PMC10724198
